Source: patent publication US11213565B2, “Protein P8 derived from lactic acid bacteria and its use as anti-cancer agent” (CELL BIOTECH CO., LTD., priority 2016, dated 2022)

Assays:
[1] = test system: colorectal cancer cell line DLD-1; test: Cell survival rate (WST-8) in DLD-1; type: cell-based, human; settings: 0.39 μl/ml to 100 μl/ml, 24 hours
Procedure: Colorectal cancer DLD-1 cells were cultured in a 96-well plate at a density of 1×10^4 cells/well, and each of active sites 1 to 3 (SEQ ID NOs: 8 to 10) of Example 1-3 was added thereto at a concentration of 10 μg/ml. As a negative control, 0.1% PBS buffer used in protein purification was used. The cells were incubated for 24 hours, and then each well was treated with 100 of a cell survival rate measurement kit (Dojindo Cell count kit WST-8) and incubated for 2 hours. The absorbance of each well at 450 nm was measured using a microplate reader (Amersham, Biorad, USA, Japan), and based on the measured values, cell survival rates were calculated.
(§1) Each of the colorectal cancer cell line DLD-1 and the HT-29 cell line was cultured in a 96-well plate at a density of 1×10^4 cells/well, and the P8 protein of Example 1 was added thereto at a concentration of 0.39 μl/ml to 100 μl/ml. As a negative control, 0.1% PBS buffer used in protein purification was used. The cells were incubated for 24 hours, and then each well was treated with 100 of a cell survival rate measurement kit (Dojindo Cell count kit WST-8) and incubated for 2 hours. The absorbance of each well at 450 nm was measured using a microplate reader (Amersham, Biorad, USA, Japan), and based on the measured values, cell survival rates were calculated.

HT-29 cell line = test: Cell survival rate (WST-8) in HT-29; type: cell-based; settings: 0.39 μl/ml to 100 μl/ml, 24 hours
Procedure: as §1

[2] = test system: Colorectal cancer DLD-1 cells; test: LIVE/DEAD viability/cytotoxicity staining of DLD-1; type: cell-based, human; settings: 1 μg/ml or 10 μg/ml, 24 to 48 hours
Procedure: (§2) Colorectal cancer DLD-1 cells were cultured in a 6-well plate at a density of 1.5×10^6 cells/well, and a P8 protein of the present invention was added thereto at a concentration of 1 μg/ml or 10 μg/ml. Next, the cells were incubated for 24 to 48 hours, and then washed twice with phosphate buffered saline and treated with 1 ml of a LIVE/DEAD viability/cytotoxicity staining kit, followed by incubation for 20 to 40 minutes. By the staining, living cells were stained green, and dead cells were stained red. The cells were observed under a fluorescent microscope, and the degree of inhibition of viability thereof was analyzed.
as §2, with “and the” for “and a”, “of Example 1” for “of the present invention”, “μg/ml. Each well was” for “μg/ml. Next, the cells were”, “staining, live” for “staining, living”

[3] = test system: NIH3T3 cells (mouse embryonic fibroblast cells); test: Cytotoxicity assay (WST-8) in NIH3T3; type: cell-based; settings: 0.39 μg/ml to 100 μg/ml, 24 hours
Procedure: In order to examine whether the P8 protein of Example 1 is cytotoxic, a cytotoxicity assay was performed using the P8 protein, highly expressed in NIH3T3 cells (mouse embryonic fibroblast cells), and BSA (bovine serum albumin) as a […] control.
First, NIH3T3 cells were cultured in a 96-well plate at a density of 1×10^4 cells/well, and each of BSA and the highly expressed and purified P8 protein was added thereto at a concentration of 0.39 μg/ml to 100 μg/ml. Each well was incubated for 24 hours, and then treated with 100 of a cell survival rate measurement kit (Dojindo Cell count kit WST-8), followed by incubation for 2 hours. The absorbance of each well at 450 nm was measured using a microplate reader (Amersham, Biorad, USA, Japan), and based on the measured values, cell survival rates were calculated.

[4] = test system: Colorectal cancer DLD-1 cells; test: Scratch assay, migration of colorectal cancer cells; type: cell-based, human; settings: 1 μg/ml daily
Procedure: Colorectal cancer DLD-1 cells were treated daily with 1 μg/ml of the P8 protein of Example 1 for 1, 3 or 7 days, and then dispensed into each well of a 6-well plate.
The dispensed DLD-1 cells were cultured overnight, and then the plate having the cells cultured thereon was scratched with a 200 μl tip. To remove suspended material resulting from the scratch, the plate was washed twice with PBS, and then additionally incubated for 24 hours.

[5] = test system: human colorectal cancer cell line (DLD-1) xenograft; test: Colorectal cancer xenograft model, tumor volume; type: in vivo, nude mice
Procedure: The human colorectal cancer cell line (DLD-1) was transplanted subcutaneously into nude mice, thereby constructing xenograft models. Using the xenograft models, the anticancer activity of the P8 protein of Example 1 was evaluated.
First, for construction of colorectal cancer xenograft models, DLD-1 cells were transplanted subcutaneously into nude mice at a concentration of 1×10^7 cells/100 μl. 10 to 15 Days after the transplantation, the transplanted state of the tumor cells was checked, and mice showing a stable transplanted state were continuously observed. Before tumor's central necrosis occurred, mice showing rapid tumor growth due to supply of sufficient blood were selected, and tumor tissues were collected therefrom. Of the collected tumor tissue, the outer portion in which rapid cell division mainly occurred was cut into a predetermined size (3×3×3 mm), thereby constructing a tumor fragment. Then, the tumor fragment was placed on the tip of a puncture needle (Trocar), and the anterior side of the left rear leg of each animal was incised about 4 mm. The prepared puncture needle was inserted through the incision such that the tip reached the interbody side on the rear side of the left front leg. […] The position of the tumor fragment was determined by touching the skin with hand. […]
During drug administration, the tumor size was measured using Vernier calipers once every two days. […]

B1: P8 protein: 8 KDa protein fragment extracted from Lactobacillus rhamnosus, amino acid sequence SEQ ID NO: 2 (protein, listed as Lactobacillus rhamnosus)
chain: MATVDPEKTLFLDEPMNKVFDWSNSEAPVRDALWDYYMEKNSRDTIKTEEEMKPVLDMSDDEVKALAEKVLKK
[1]
  cell growth inhibitory effect: about 20%
HT-29 cell line
  cell growth inhibitory effect: about 20%
[2]
  dependence of viability on concentration or time of treatment: decreased as the concentration or time of treatment with the P8 protein increased
[2]; fluorescent microscope
  viability of the cells compared to negative control: decreased
[3]
  cytotoxicity (cell survival rate compared with BSA): not cytotoxic
[4]; 1-day treatment
  decrease of migration rate of the cells compared to untreated control: 15.7%
[4]; 3-day treatment
  decrease of migration rate of the cells compared to untreated control: 45.9%
[4]; 7-day treatment
  decrease of migration rate of the cells compared to untreated control: 58.3%
[5]; 10 mg/Kg or higher, intraperitoneally twice a week for 4 weeks, vs 5-fluorouracil 10 mg/Kg, oxaliplatin 4 mg/Kg
  cancer growth inhibitory effects compared to conventional anticancer agents: superior
[5]; 1, 5 and 10 mg/Kg intraperitoneally twice a week for 4 weeks
  cancer growth compared to negative control group: significantly inhibited
